Assay results: doi:10.1101/2024.11.26.625568, “Structural and functional insights into activation and regulation of the dynein-dynactin-NuMA complex” (bioRxiv, 2024)

B1: NuMA MTBD2 (domain or fragment, human, UniProt Q14980 2002-2115, looked up)
chain: ESKKATSCFPRPMTPRDRHEGRKQSTTEAQKKAAPASTKQADRRQSMAFSILNTPKKLGNSLLRRGASKKALSKASPNTRSGTRRSPRIATTTASAATAAAIGATPRAKGKAKH
notes: NuMA, human, a.a; 2002-2115; source: SF9 insect cells (baculovirus), purified (IgG Sepharose, TEV elution, Superdex 200 SEC); not shown: His6, N-terminal, cleaved; ZZ, N-terminal, cleaved; MBP, N-terminal, cleaved; mNG, C-terminal, kept
B2: NuMA C (domain or fragment, human, UniProt Q14980 1700-2115, looked up)
chain: FQVATDALKSREPQAKPQLDLSIDSLDLSCEEGTPLSITSKLPRTQPDGTSVPGEPASPISQRLPPKVESLESLYFTPIPARSQAPLESSLDSLGDVFLDSGRKTRSARRRTTQIINITMTKKLDVEEPDSANSSFYSTRSAPASQASLRATSSTQSLARLGSPDYGNSALLSLPGYRPTTRSSARRSQAGVSSGAPPGRNSFYMGTCQDEPEQLDDWNRIAELQQRNRVCPPHLKTCYPLESRPSLSLGTITDEEMKTGDPQETLRRASMQPIQIAEGTGITTRQQRKRVSLEPHQGPGTPESKKATSCFPRPMTPRDRHEGRKQSTTEAQKKAAPASTKQADRRQSMAFSILNTPKKLGNSLLRRGASKKALSKASPNTRSGTRRSPRIATTTASAATAAAIGATPRAKGKAKH
notes: NuMA, human, C-terminal region a.a; 1700-2115; also called NuMA C-terminus; NuMA C-mNG; source: SF9 insect cells (baculovirus), purified (IgG Sepharose, TEV elution, Superdex 200 SEC); not shown: His6, N-terminal, cleaved; ZZ, N-terminal, cleaved; MBP, N-terminal, cleaved; mNG, C-terminal, kept
B3: NuMA 1-1699 (domain or fragment, human, UniProt Q14980 1-1699, looked up)
chain: MTLHATRGAALLSWVNSLHVADPVEAVLQLQDCSIFIKIIDRIHGTEEGQQILKQPVSERLDFVCSFLQKNRKHPSSPECLVSAQKVLEGSELELAKMTMLLLYHSTMSSKSPRDWEQFEYKIQAELAVILKFVLDHEDGLNLNEDLENFLQKAPVPSTCSSTFPEELSPPSHQAKREIRFLELQKVASSSSGNNFLSGSPASPMGDILQTPQFQMRRLKKQLADERSNRDELELELAENRKLLTEKDAQIAMMQQRIDRLALLNEKQAASPLEPKELEELRDKNESLTMRLHETLKQCQDLKTEKSQMDRKINQLSEENGDLSFKLREFASHLQQLQDALNELTEEHSKATQEWLEKQAQLEKELSAALQDKKCLEEKNEILQGKLSQLEEHLSQLQDNPPQEKGEVLGDVLQLETLKQEAATLAANNTQLQARVEMLETERGQQEAKLLAERGHFEEEKQQLSSLITDLQSSISNLSQAKEELEQASQAHGARLTAQVASLTSELTTLNATIQQQDQELAGLKQQAKEKQAQLAQTLQQQEQASQGLRHQVEQLSSSLKQKEQQLKEVAEKQEATRQDHAQQLATAAEEREASLRERDAALKQLEALEKEKAAKLEILQQQLQVANEARDSAQTSVTQAQREKAELSRKVEELQACVETARQEQHEAQAQVAELELQLRSEQQKATEKERVAQEKDQLQEQLQALKESLKVTKGSLEEEKRRAADALEEQQRCISELKAETRSLVEQHKRERKELEEERAGRKGLEARLQQLGEAHQAETEVLRRELAEAMAAQHTAESECEQLVKEVAAWRERYEDSQQEEAQYGAMFQEQLMTLKEECEKARQELQEAKEKVAGIESHSELQISRQQNELAELHANLARALQQVQEKEVRAQKLADDLSTLQEKMAATSKEVARLETLVRKAGEQQETASRELVKEPARAGDRQPEWLEEQQGRQFCSTQAALQAMEREAEQMGNELERLRAALMESQGQQQEERGQQEREVARLTQERGRAQADLALEKAARAELEMRLQNALNEQRVEFATLQEALAHALTEKEGKDQELAKLRGLEAAQIKELEELRQTVKQLKEQLAKKEKEHASGSGAQSEAAGRTEPTGPKLEALRAEVSKLEQQCQKQQEQADSLERSLEAERASRAERDSALETLQGQLEEKAQELGHSQSALASAQRELAAFRTKVQDHSKAEDEWKAQVARGRQEAERKNSLISSLEEEVSILNRQVLEKEGESKELKRLVMAESEKSQKLEERLRLLQAETASNSARAAERSSALREEVQSLREEAEKQRVASENLRQELTSQAERAEELGQELKAWQEKFFQKEQALSTLQLEHTSTQALVSELLPAKHLCQQLQAEQAAAEKRHREELEQSKQAAGGLRAELLRAQRELGELIPLRQKVAEQERTAQQLRAEKASYAEQLSMLKKAHGLLAEENRGLGERANLGRQFLEVELDQAREKYVQELAAVRADAETRLAEVQREAQSTARELEVMTAKYEGAKVKVLEERQRFQEERQKLTAQVEQLEVFQREQTKQVEELSKKLADSDQASKVQQQKLKAVQAQGGESQQEAQRLQAQLNELQAQLSQKEQAAEHYKLQMEKAKTHYDAKKQQNQELQEQLRSLEQLQKENKELRAEAERLGHELQQAGLKTKEAEQTCRHLTAQVRSLEAQVAHADQQLRDLGK
modifications: LD555 dye on the SNAP tag
notes: NuMA (nuclear mitotic apparatus protein), human, a.a; 1-1699; also called NuMA N-terminal construct; source: SF9 insect cells (baculovirus), purified (IgG Sepharose, TEV elution, Superose 6 SEC); not shown: His6, N-terminal, cleaved; ZZ, N-terminal, cleaved; SNAP, C-terminal, kept
B4: NuMA 1-505 (domain or fragment, human, UniProt Q14980 1-505, looked up)
chain: MTLHATRGAALLSWVNSLHVADPVEAVLQLQDCSIFIKIIDRIHGTEEGQQILKQPVSERLDFVCSFLQKNRKHPSSPECLVSAQKVLEGSELELAKMTMLLLYHSTMSSKSPRDWEQFEYKIQAELAVILKFVLDHEDGLNLNEDLENFLQKAPVPSTCSSTFPEELSPPSHQAKREIRFLELQKVASSSSGNNFLSGSPASPMGDILQTPQFQMRRLKKQLADERSNRDELELELAENRKLLTEKDAQIAMMQQRIDRLALLNEKQAASPLEPKELEELRDKNESLTMRLHETLKQCQDLKTEKSQMDRKINQLSEENGDLSFKLREFASHLQQLQDALNELTEEHSKATQEWLEKQAQLEKELSAALQDKKCLEEKNEILQGKLSQLEEHLSQLQDNPPQEKGEVLGDVLQLETLKQEAATLAANNTQLQARVEMLETERGQQEAKLLAERGHFEEEKQQLSSLITDLQSSISNLSQAKEELEQASQAHGARLTAQVASLTS
modifications: LD555 dye on the SNAP tag
notes: NuMA (nuclear mitotic apparatus protein), human, a.a; The methods say 'C-terminal SNAP or mNG'; also called NuMA N-terminal construct; source: SF9 insect cells (baculovirus), purified (IgG Sepharose, TEV elution, Superose 6 SEC); not shown: His6, N-terminal, cleaved; ZZ, N-terminal, cleaved; SNAP, C-terminal, kept
B5: NuMA 1-705 (domain or fragment, human, UniProt Q14980 1-705, looked up)
chain: MTLHATRGAALLSWVNSLHVADPVEAVLQLQDCSIFIKIIDRIHGTEEGQQILKQPVSERLDFVCSFLQKNRKHPSSPECLVSAQKVLEGSELELAKMTMLLLYHSTMSSKSPRDWEQFEYKIQAELAVILKFVLDHEDGLNLNEDLENFLQKAPVPSTCSSTFPEELSPPSHQAKREIRFLELQKVASSSSGNNFLSGSPASPMGDILQTPQFQMRRLKKQLADERSNRDELELELAENRKLLTEKDAQIAMMQQRIDRLALLNEKQAASPLEPKELEELRDKNESLTMRLHETLKQCQDLKTEKSQMDRKINQLSEENGDLSFKLREFASHLQQLQDALNELTEEHSKATQEWLEKQAQLEKELSAALQDKKCLEEKNEILQGKLSQLEEHLSQLQDNPPQEKGEVLGDVLQLETLKQEAATLAANNTQLQARVEMLETERGQQEAKLLAERGHFEEEKQQLSSLITDLQSSISNLSQAKEELEQASQAHGARLTAQVASLTSELTTLNATIQQQDQELAGLKQQAKEKQAQLAQTLQQQEQASQGLRHQVEQLSSSLKQKEQQLKEVAEKQEATRQDHAQQLATAAEEREASLRERDAALKQLEALEKEKAAKLEILQQQLQVANEARDSAQTSVTQAQREKAELSRKVEELQACVETARQEQHEAQAQVAELELQLRSEQQKATEKERVAQEKDQLQEQLQ
modifications: LD555 dye on the SNAP tag
notes: NuMA (nuclear mitotic apparatus protein), human, a.a; Construct used for the cryo-EM structure of the DDN complex; also called NuMA N-terminal construct; source: SF9 insect cells (baculovirus), purified (IgG Sepharose, TEV elution, Superose 6 SEC); not shown: His6, N-terminal, cleaved; ZZ, N-terminal, cleaved; SNAP, C-terminal, kept
B6: TPR domain of LGN (a.a. 1-409) (domain or fragment, human, UniProt P81274 1-409, looked up)
chain: MEENLISMREDHSFHVRYRMEASCLELALEGERLCKSGDCRAGVSFFEAAVQVGTEDLKTLSAIYSQLGNAYFYLHDYAKALEYHHHDLTLARTIGDQLGEAKASGNLGNTLKVLGNFDEAIVCCQRHLDISRELNDKVGEARALYNLGNVYHAKGKSFGCPGPQDVGEFPEEVRDALQAAVDFYEENLSLVTALGDRAAQGRAFGNLGNTHYLLGNFRDAVIAHEQRLLIAKEFGDKAAERRAYSNLGNAYIFLGEFETASEYYKKTLLLARQLKDRAVEAQSCYSLGNTYTLLQDYEKAIDYHLKHLAIAQELNDRIGEGRACWSLGNAYTALGNHDQAMHFAEKHLEISREVGDKSGELTARLNLSDLQMVLGLSYSTNNSIMSENTEIDSSLNGVRPKLGRRHSM
modifications: LD655 dye on the SNAP tag (unlabeled LGN in some assays)
notes: LGN, human, N-terminal TPR domain a.a; 1-409; cloned from pTK47_mCherry-LGN-Hardened; The methods say 'C-terminal SNAP or mNG'; the LD655 labelling implies SNAP; also called LGN TPR; source: SF9 insect cells (baculovirus), purified (IgG Sepharose, TEV elution, Resource-Q ion exchange); not shown: His6, N-terminal, cleaved; ZZ, N-terminal, cleaved; SNAP, C-terminal, kept

Columns and labels:
[1] = molecular target: microtubules (pig brain tubulin) (pig, UniProt P02550 1-451; Q767L7 1-444, Cy3 or Cy5 and biotin labels on a fraction of the tubulin | Cy3 or Cy5 and biotin labels on a fraction of the tubulin); assay: TIRF imaging of fluorescent protein on surface-immobilised microtubules; Cy3/biotin taxol-stabilised MTs immobilised by streptavidin; serial dilutions of mNG-fused NuMA constructs in MBC buffer (30 mM HEPES pH 7.4, 5 mM MgSO4, 1 mM EGTA, 100 mM KAc, casein, pluronic, methylcellulose); apparent Kd from a fit to a binding isotherm; settings: both partners purified
[2] = molecular target: the molecule itself; assay: mass photometry; single protein diluted to 5-20 nM in 50 mM HEPES pH 7.4, 150 mM NaCl, 1 mM EGTA, 10% glycerol; TwoMP mass photometer
[3] = molecular target: B2; assay: mass photometry; NuMA C and LGN mixed in equimolar (20 nM) concentrations; mass photometry buffer; settings: both partners purified

| Binder | Kd [1] [nM] | stoichiometry N [2] | further results |
| --- | --- | --- | --- |
| B1 | 28 | – | – |
| B2 | 390 | – | – |
| B3 | – | 2 | – |
| B4 | – | 2 | – |
| B5 | – | 2 | – |
| B6 | – | – | stoichiometry N [3]: 3 LGN per 3 NuMA C |
